Reference: publication PMC11915586

Experiments:
[1] = target: Hsp90 from Saccharomyces cerevisiae (Hsp82) with D61C, CpK at position 452 and a C-terminal coiled-coil motif, labelled with Atto 550 / Atto 647N and DNA oligonucleotide (Saccharomyces cerevisiae) (UniProt P02829); assay: optical tweezers (single-molecule force spectroscopy); dye-labeled Hsp90 dimer tethered at position 452 by 2.5 kbp DNA handles; constant velocity 500 nm s^-1; 2 mM AMP-PNP, incubated 30 min at 21°C; 26 traces
[2] = target: Hsp90 from Saccharomyces cerevisiae (Hsp82) with D61C, CpK at position 452 and a C-terminal coiled-coil motif, labelled with Atto 550 / Atto 647N and DNA oligonucleotide (Saccharomyces cerevisiae) (UniProt P02829); assay: optical tweezers (single-molecule force spectroscopy); dye-labeled Hsp90 dimer tethered at position 452 of both monomers between two beads by 2.5 kbp DNA handles; constant velocity 500 nm s^-1; no AMP-PNP; 147 unfolding traces
[3] = target: Hsp90 from Saccharomyces cerevisiae (Hsp82) with D61C, CpK at position 452 and a C-terminal coiled-coil motif, labelled with Atto 550 / Atto 647N and DNA oligonucleotide (Saccharomyces cerevisiae) (UniProt P02829); assay: optical tweezers (single-molecule force spectroscopy); dye-labeled Hsp90 dimer tethered at position 452 of both monomers between two beads by 0.5 kbp DNA handles; constant velocity 500 nm s^-1; no nucleotide; 172 unfolding traces

“Hsp90 from Saccharomyces cerevisiae (Hsp82) with D61C, CpK at position 452 and a C-terminal coiled-coil motif, labelled with Atto 550 / Atto 647N and DNA oligonucleotide (from UniProt P02829 1-709) (natural protein)” showed a dissociation force, C-terminal dimer dissociation [1] of 10.7 pN, a force of N-terminal dimer opening [1] of 8.8 pN and a dissociation force, C-terminal dimer dissociation [2] of 16.5 pN. It also gave a dissociation force, C-terminal dimer dissociation [3] of 16.8 pN.
